Patent US20260008815A1, “CYCLIC PEPTIDE OR SALT THEREOF, AND USES THEREOF” (FUJIFILM Corporation, priority 2023, published 2026)
Bridge positions count the residues as written; N and C are the ends. Ends that are not written are not given here. COCH2 = acetyl group that carries the bridge

B1: cyclic peptide SEQ ID NO: 362 (peptide)
peptide: LCYLYQYLYTTK(COCH2)Y
modifications: thioether 2-12
B2: cyclic peptide SEQ ID NO: 97 (peptide)
peptide: QCPQSFINPVQWRYFQHYK(COCH2)N
modifications: thioether 2-19
B3: cyclic peptide SEQ ID NO: 102 (peptide)
peptide: QCPQNFINPVQVRYFQHYK(COCH2)N
modifications: thioether 2-19
B4: cyclic peptide SEQ ID NO: 399 (peptide)
peptide: QK(COCH2)PQNFINPVQWRYFQHYCN
modifications: thioether 2-19
B5: cyclic peptide SEQ ID NO: 104 (peptide)
peptide: QCPQNFINPVQYRYFQHYK(COCH2)N
modifications: thioether 2-19
B6: cyclic peptide SEQ ID NO: 101 (peptide)
peptide: QCPQNFINPVQIRYFQHYK(COCH2)N
modifications: thioether 2-19
B7: cyclic peptide SEQ ID NO: 98 (peptide)
peptide: QCPQTFINPVQWRYFQHYK(COCH2)N
modifications: thioether 2-19
B8: cyclic peptide SEQ ID NO: 106 (peptide)
peptide: QCPQNFINPVQHRYFQHYK(COCH2)N
modifications: thioether 2-19
B9: cyclic peptide SEQ ID NO: 105 (peptide)
peptide: QCPQNFINPVQSRYFQHYK(COCH2)N
modifications: thioether 2-19
B10: cyclic peptide SEQ ID NO: 103 (peptide)
peptide: QCPQNFINPVQFRYFQHYK(COCH2)N
modifications: thioether 2-19
B11: cyclic peptide SEQ ID NO: 100 (peptide)
peptide: QCPQHFINPVQWRYFQHYK(COCH2)N
modifications: thioether 2-19
B12: cyclic peptide SEQ ID NO: 99 (peptide)
peptide: QCPQEFINPVQWRYFQHYK(COCH2)N
modifications: thioether 2-19
B13: cyclic peptide SEQ ID NO: 373 (peptide)
peptide: QCYNYQYIYQYIYK(COCH2)I
modifications: thioether 2-14
B14: cyclic peptide SEQ ID NO: 364 (peptide)
peptide: QCLQYLYQYLFK(COCH2)I
modifications: thioether 2-12
B15: cyclic peptide SEQ ID NO: 374 (peptide)
peptide: QCLQDLYRYLYLLK(COCH2)A
modifications: thioether 2-14
B16: cyclic peptide SEQ ID NO: 51 (peptide)
peptide: VCHSNFLSAVQYAYFYQYK(COCH2)H
modifications: thioether 2-19 (inferred)
B17: cyclic peptide SEQ ID NO: 378 (peptide)
peptide: QCPRQLYYLYLYLSK(COCH2)I
modifications: thioether 2-15
B18: cyclic peptide SEQ ID NO: 52 (peptide)
peptide: VCNENNWSRSQYHFFLQYK(COCH2)Y
modifications: thioether 2-19 (inferred)
B19: cyclic peptide SEQ ID NO: 366 (peptide)
peptide: DCQQYYLYLYLWK(COCH2)I
modifications: thioether 2-13
B20: cyclic peptide SEQ ID NO: 365 (peptide)
peptide: LCYLYQYLYQAK(COCH2)F
modifications: thioether 2-12
B21: cyclic peptide SEQ ID NO: 361 (peptide)
peptide: QCYYLYWYLYK(COCH2)I
modifications: thioether 2-11
B22: cyclic peptide SEQ ID NO: 372 (peptide)
peptide: QCEQLKYLYQYVLKL
modifications: not fully specified; thioether ring (C)-(K(acetyl))
B23: cyclic peptide SEQ ID NO: 49 (peptide)
peptide: SCQGNWISNTQFRYFIAYK(COCH2)T
modifications: thioether 2-19 (inferred); not fully specified (residue 1); printed as s-(C)-QGNWISNTQFRYFIAY-(K(acetyl))-T
B24: cyclic peptide SEQ ID NO: 375 (peptide)
peptide: DCLQFIYQYLYTVK(COCH2)I
modifications: thioether 2-14
B25: cyclic peptide SEQ ID NO: 377 (peptide)
peptide: HCLHYLYQYLYTVK(COCH2)Y
modifications: thioether 2-14
B26: cyclic peptide SEQ ID NO: 363 (peptide)
peptide: LCYLYQYIYTAK(COCH2)F
modifications: thioether 2-12
B27: cyclic peptide SEQ ID NO: 370 (peptide)
peptide: DCQLYYLYQYVLTK(COCH2)V
modifications: thioether 2-14
B28: cyclic peptide SEQ ID NO: 371 (peptide)
peptide: DCQLWYLYQYLIVK(COCH2)A
modifications: thioether 2-14
B29: cyclic peptide SEQ ID NO: 48 (peptide)
peptide: GCYWNEVQYYYLQQYK(COCH2)Q
modifications: thioether 2-16 (inferred)
B30: cyclic peptide SEQ ID NO: 379 (peptide)
peptide: NCQLYYTYLYLHTLK(COCH2)F
modifications: thioether 2-15
B31: cyclic peptide SEQ ID NO: 376 (peptide)
peptide: QCIQDLYLYLYFLK(COCH2)T
modifications: thioether 2-14
B32: cyclic peptide SEQ ID NO: 367 (peptide)
peptide: HCQLEYLYTYVLK(COCH2)I
modifications: thioether 2-13
B33: cyclic peptide SEQ ID NO: 368 (peptide)
peptide: QCLIQDLYAYIFK(COCH2)L
modifications: thioether 2-13
B34: cyclic peptide SEQ ID NO: 369 (peptide)
peptide: DCLQFLYLYLYQK(COCH2)T
modifications: thioether 2-13
B35: cyclic peptide SEQ ID NO: 50 (peptide)
peptide: ACGQNFYHPVQFHYFIAYK(COCH2)Q
modifications: thioether 2-19 (inferred)

Target: T1, Recombinant Human FGFR2 alpha (IIIc) Fc Chimera Protein, CF (R&D systems, 712-FR-050) (human, UniProt P21802 22-377)
T1 construct: bought; not shown: Fc part of the chimera
Experiment: ELISA on plate-bound FGFR2-Fc
Procedure, shortened: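 Peptide binding scored by category from dose-response of background-corrected luminescence (FGFR-coated minus uncoated wells). Detection via anti-Myc antibody (2 h, room temperature) after 3 h peptide incubation on wells coated with 5 ng FGFR2 alpha (IIIc)-Fc.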

T1 sequence (P21802 22-377, change not shown): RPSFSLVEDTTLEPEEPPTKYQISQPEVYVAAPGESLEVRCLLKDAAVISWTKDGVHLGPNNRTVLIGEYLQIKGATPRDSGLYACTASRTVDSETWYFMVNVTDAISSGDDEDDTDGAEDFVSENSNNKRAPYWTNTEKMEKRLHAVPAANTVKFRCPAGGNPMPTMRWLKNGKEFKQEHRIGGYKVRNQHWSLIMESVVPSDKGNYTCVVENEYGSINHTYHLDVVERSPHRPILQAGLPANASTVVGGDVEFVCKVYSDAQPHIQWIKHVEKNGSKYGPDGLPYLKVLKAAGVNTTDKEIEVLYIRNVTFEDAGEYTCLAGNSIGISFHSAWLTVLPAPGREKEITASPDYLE

| Binder | ELISA luminescence signal at 10 nmol/L peptide, relative to SEQ ID NO: 47 (=1) [ratio] |
| --- | --- |
| B1 | 0.1 to 0.5 |
| B2 | 0.1 to 0.5 |
| B3 | 0.1 to 0.5 |
| B4 | 0.1 to 0.5 |
| B5 | 0.5 to 0.7 |
| B6 | 0.1 to 0.5 |
| B7 | 0.1 to 0.5 |
| B8 | ≥ 0.7 |
| B9 | 0.1 to 0.5 |
| B10 | 0.5 to 0.7 |
| B11 | 0.1 to 0.5 |
| B12 | 0.1 to 0.5 |
| B13 | 0.1 to 0.5 |
| B14 | 0.1 to 0.5 |
| B15 | 0.1 to 0.5 |
| B16 | ≥ 0.7 |
| B17 | 0.1 to 0.5 |
| B18 | 0.1 to 0.5 |

| Binder | ELISA luminescence signal at 10 nmol/L peptide, relative to SEQ ID NO: 47 (=1) [ratio] |
| --- | --- |
| B19 | 0.1 to 0.5 |
| B20 | 0.1 to 0.5 |
| B21 | 0.1 to 0.5 |
| B22 | 0.1 to 0.5 |
| B23 | ≥ 0.7 |
| B24 | 0.1 to 0.5 |
| B25 | 0.1 to 0.5 |
| B26 | 0.1 to 0.5 |
| B27 | 0.1 to 0.5 |
| B28 | 0.1 to 0.5 |
| B29 | ≥ 0.7 |
| B30 | 0.1 to 0.5 |
| B31 | 0.1 to 0.5 |
| B32 | 0.1 to 0.5 |
| B33 | 0.1 to 0.5 |
| B34 | 0.1 to 0.5 |
| B35 | ≥ 0.7 |
